This passage reports Kd results from publication doi:10.1101/779439.

This experiment deals with peptide of CD3 zeta chain containing SNID2 (residues 115-135). The experiment can be described thus: ITC.

In turn, “HIV-2 consensus Nef core domain (residues 90-256) (domain or fragment)” yielded an equilibrium dissociation constant (Kd) of 12 µM.

As for “SIVmac239 Nef full core domain (residues 90-263), His-tagged, as used for ITC (domain or fragment)”, the dissociation constant Kd amounted to 5 µM. Against the preceding substance, the Kd is about 2.4-fold lower.
